In doi:10.1101/2023.07.18.549521 (bioRxiv, 2023):

B1: full-length tepsin-GST (residues 1-525) (natural protein)
chain: MAAAPPLRDRLSFLHRLPILLKGTSDDDVPCPGYLFEEIAKISHESPGSSQCLLEYLLSRLHSSSGHGKLKVLKILLYLCSHGSSFFLLILKRNSAFIQEAAAFAGPPDPLHGNSLYQKVRAAAQDLGSTLFSDTVLPLAPSQPLGTPPATGMGSQARPHSTLQGFGYSKEHGRTAVRHQPGQAGGGWDELDSGPSSQNSSQNSDLSRVSDSGSHSGSDSHSGASREPGDLAERVEVVALSDCQQELSLVRTVTRGPRAFLSREEAQHFIKACGLLNCEAVLQLLTCHLRGTSECTQLRALCAIASLGSSDLLPQEHILLRTRPWLQELSMGSPGPVTNKATKILRHFEASCGQLSPARGTSAEPGPTAALPGPSDLLTDAVPLPGSQVFLQPLSSTPVSSRSPAPSSGMPSSPVPTPPPDASPIPAPGDPSEAEARLAESRRWRPERIPGGTDSPKRGPSSCAWSRDSLFAGMELVACPRLVGAGAAAGESCPDAPRAPQTSSQRTAAKEPPGSEPSAFAFLNA
B2: AP-4 β4 appendage domain (residues 615-739) (domain or fragment, UniProt Q9Y6B7 615-739, looked up)
chain: SGALMLVPNRQLTADYFEKTWLSLKVAHQQVLPWRGEFHPDTLQMALQVVNIQTIAMSRAGSRPWKAYLSAQDDTGCLFLTELLLEPGNSEMQISVKQNEARTETLNSFISVLETVIGTIEEIKS
B3: tepsin LIR motif peptide (residues 185-193) (peptide)
peptide: SGGGWDELDS

How the values were obtained:
[1] = biological target: T1, His6x-LC3B (residues 1-120) (UniProt Q9GZQ8 1-120); experiment: pull-down
[2] = biological target: B1; experiment: pull-down
[3] = biological target: T1, His6x-LC3B (residues 1-120); experiment: ITC

## B1
[1]
  binding result: binds

## B2
[2]
  binding result: binds

## B3
[3]
  Kd: 44.4 µM
